Measurements reported in patent US20260184782A1 (TWIST BIOSCIENCE, published 2026).

T1: human TIGIT-Fc (human, UniProt Q495A1 22-141, limits assumed)
T1 construct: not shown: Fc; not described
T1 sequence (looked up): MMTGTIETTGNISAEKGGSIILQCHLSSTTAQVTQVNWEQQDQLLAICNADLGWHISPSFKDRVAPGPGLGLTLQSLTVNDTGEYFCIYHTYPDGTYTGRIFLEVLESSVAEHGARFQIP

T2: TIGIT (UniProt Q495A1 22-141, limits assumed)
T2 construct: also called T cell immunoreceptor with Ig and ITIM domains; hTIGIT
T2 sequence (looked up): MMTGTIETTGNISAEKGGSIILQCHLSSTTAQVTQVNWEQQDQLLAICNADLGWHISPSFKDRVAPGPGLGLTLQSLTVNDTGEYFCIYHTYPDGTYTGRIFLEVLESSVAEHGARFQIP

B1: TIGIT-SC209 (Fc fusion)
VHH: EVQLVESGGGLVQPGGSLRLSCAASGFLFNSYWMGWFRQAPGKEREFVAAIWRSGTLKAYADSVKGRFTISADNSKNTEYLQMNSLKPEDTAVYYCARDDYGDYRIYFQHWGQGTLVTVSS
notes: VHH-Fc
B2: TIGIT-SC213 (Fc fusion)
VHH: EVQLVESGGGLVQPGGSLRLSCAASGTFQRINAMGWFRQAPGKEREFVAAIWRSGTLKAYADSVKGRFTISADNSKNTAYLQMNSLKPEDTAVYYCARWVGASGDYWIDYWGQGTLVTVSS
notes: VHH-Fc
B3: TIGIT-SC214 (Fc fusion)
VHH: EVQLVESGGGLVQPGGSLRLSCAASGFTFGDSWMGWFRQAPGKEHEFVAAIWRSGTLKAYADSVKGRFTISADNSKNTAYLQMNSLKPEDTAVYYCTSYDAVAGTRDFWGQGTLVTVSS
notes: VHH-Fc
B4: TIGIT-30-54 (VHH-V5-His) (VHH)
VHH: EVQLVESGGGLVQAGGSLRLSCAASGFTFRSFGMGWFRQAPGKEREFVASTIWSRGDTYYADSVKGRFTISADNAKNTVYLQMNSLKPEDTAVYYCASSPYGPLYRSTHYYDWGQGTQVTVSS
notes: not shown: V5-His tag
B5: TIGIT-30-58 (VHH-V5-His) (VHH)
VHH: EVQLVESGGGLVQAGGSLRLSCAASGFAFGDSWMGWFRQAPGKEREWVSGISSGGGRTYYADSVKGRFTISADNAKNTVYLQMNSLKPEDTAVYYCAADVWYGSTWRNWGQGTQVTVSS
notes: not shown: V5-His tag
B6: TIGIT-31-06 (VHH-V5-His) (VHH)
VHH: EVQLVESGGGLVQPGGSLRLSCAASGFTFSTSWMGWFRQAPGKERELVASITSGGSTYYADSVKGRFTISADNSKNTAYLQMNSLKPEDTAVYYCAADVWYGSTWRNWGQGTLVTVSS
notes: also called TIGIT-31-6; 31-6; not shown: V5-His tag
B7: TIGIT-31-01 (VHH-V5-His) (VHH)
VHH: EVQLVESGGGLVQPGGSLRLSCAASGFTFDRSWMGWFRQAPGKEREVVASITSGGSTYYADSVKGRFTISADNSKNTAYLQMNSLKPEDTAVYYCAADVWYGSTWRNWGQGTLVTVSS
notes: also called TIGIT-31-1; 31-1; not shown: V5-His tag
B8: TIGIT-31-08 (VHH-V5-His) (VHH)
VHH: EVQLVESGGGLVQPGGSLRLSCAASGFTFSTSWMGWFRQAPGKERELVAARNSGGNTNYADSVKGRFTISADNSKNTAYLQMNSLKPEDTAVYYCAADVWYGSTWRNWGQGTLVTVSS
notes: also called TIGIT-31-8; 31-8; not shown: V5-His tag
B9: TIGIT-31-20 (VHH-V5-His) (VHH)
VHH: EVQLVESGGGLVQPGGSLRLSCAASGFTFSGNWMGWFRQAPGKEREFVAGILSDGRELYADSVKGRFTISADNSKNTAYLQMNSLKPEDTAVYYCAADVWYGSTWRNWGQGTLVTVSS
notes: not shown: V5-His tag
B10: TIGIT-31-26 (VHH-V5-His) (VHH)
VHH: EVQLVESGGGLVQPGGSLRLSCAASGFTFDRSWMGWFRQAPGKERELVAAITSGGSTYYADSVKGRFTISADNSKNTAYLQMNSLKPEDTAVYYCAADVWYGSTWRNWGQGTLVTVSS
notes: not shown: V5-His tag
B11: TIGIT-31-32 (VHH-V5-His) (VHH)
VHH: EVQLVESGGGLVQPGGSLRLSCAASGFTFSTSWMGWFRQAPGKERELVAAMTSGGGTNYADSVKGRFTISADNSKNTAYLQMNSLKPEDTAVYYCAADVWYGSTWRNWGQGTLVTVSS
notes: not shown: V5-His tag

Columns and labels:
human TIGIT-Fc = molecular target: T1, human TIGIT-Fc; experiment: CD155 competition ELISA, single point; also: test concentration or dose not given here
Procedure: TIGIT/CD155 inhibition of VHH-Fcs were assessed using an ELISA assay (Table 10B). Briefly, human TIGIT-Fc was coated on a plate & then incubated with VHH-Fcs and human CD155-biotin. Bound CD155-biotin was detected using a streptavidin-HRP conjugate visualized with TMB. Strong inhibitors from the single point screen were titrated to determine EC50 (Table 10C).

TIGIT = molecular target: T2, TIGIT; experiment: SPR, VHH-V5-His

Binder	OD (450 nm) (human TIGIT-Fc)	Kd (TIGIT)	RU (TIGIT)	koff (TIGIT)	kon (TIGIT)
B1	0.56 OD	–	–	–	–
B2	0.587 OD	–	–	–	–
B3	0.828 OD	–	–	–	–
B4	–	1090 nM	130 RU	0.04 s⁻¹	30000 M⁻¹ s⁻¹
B5	–	1060 nM	120 RU	0.01 s⁻¹	10000 M⁻¹ s⁻¹
B6	–	145 nM	107 RU	0.003 s⁻¹	20000 M⁻¹ s⁻¹
B7	–	169 nM	122 RU	0.004 s⁻¹	20000 M⁻¹ s⁻¹
B8	–	210 nM	178 RU	0.009 s⁻¹	40000 M⁻¹ s⁻¹
B9	–	281 nM	45 RU	0.004 s⁻¹	10000 M⁻¹ s⁻¹
B10	–	158 nM	59 RU	0.003 s⁻¹	20000 M⁻¹ s⁻¹
B11	–	102 nM	145 RU	0.006 s⁻¹	60000 M⁻¹ s⁻¹
